Experimental data reported in patent publication US20100086943.

System: fusion protein comprising the c-myc tag, a generic substrate recognized by the serine/threonine kinases and the FLAG tag, expressed from the pSEMS plasmid (Snaptag)

Substance | phosphorylation of the substrate measured by TR-FRET (delta F) | phosphorylation of the substrate measured by TR-FRET after activation by ionomycin
kinase Akt1 (expressed from Akt1-pcDNA 3.1) | The co-transfection with the plasmid coding for the protein substrate and the plasmid coding for the kinase Akt1 makes it possible to increase the quantity of protein substrate phosphorylated specifically by Akt1 | –
Cam kinase II (expressed from CamKII delta-pcDNA 3.1) | – | in the presence of ionomycin, the signal measured is much greater than in its absence
